# Measured values from the RNAGym collection of RNA variant scans (doi:10.7554/elife.80360).
# B1: CPEB3 Ribozyme (parent)
# chain: GGGGGCCACAGCAGAAGCGUUCACGUCGCGGCCCCUGUCAGAUUCUGGUGAAUCUGCGAAUUCUGCUGU
# Variants of: B1
# Assay: self-cleavage, relative activity (ratio to wild type); higher = more cleavage; co-transcriptional
row,Variant,self-cleavage
1,GGGCGCCACAGCAGAAGCGUUCACGUCGCGGCCACUGUCAGAUUCUGGUGAAUCUGCGAAUUCUGCUGU [G4C C34A],0.16
2,GGGCGCCACAGCAGAAGCGUUCACGUCGCGGCCUCUGUCAGAUUCUGGUGAAUCUGCGAAUUCUGCUGU [G4C C34U],0.383
3,GGGUGCGACAGCAGAAGCGUUCACGUCGCGGCCCCUGUCAGAUUCUGGUGAAUCUGCGAAUUCUGCUGU [G4U C7G],0.0264
4,GGGUGCAACAGCAGAAGCGUUCACGUCGCGGCCCCUGUCAGAUUCUGGUGAAUCUGCGAAUUCUGCUGU [G4U C7A],0.0496
5,GGGUGCCACAGCAGAAGCGUUCAUGUCGCGGCCCCUGUCAGAUUCUGGUGAAUCUGCGAAUUCUGCUGU [G4U C24U],0.193
6,GGGUGCCACAGCAGAAGAGUUCACGUCGCGGCCCCUGUCAGAUUCUGGUGAAUCUGCGAAUUCUGCUGU [G4U C18A],0.0913
7,GGGCGCGACAGCAGAAGCGUUCACGUCGCGGCCCCUGUCAGAUUCUGGUGAAUCUGCGAAUUCUGCUGU [G4C C7G],0.0794
8,GGGCGCCACAGCAGAAGCGUUCACGUCGCGUCCCCUGUCAGAUUCUGGUGAAUCUGCGAAUUCUGCUGU [G4C G31U],0.179
9,GGGCGCCACAGCAGAAGCGUUCACGUCGCGACCCCUGUCAGAUUCUGGUGAAUCUGCGAAUUCUGCUGU [G4C G31A],0.179
10,GGGUGCCACAGCAGAAGCGUUCACGUCGCGGCCCCUGUCAGAUUCUGGUGAAUCUGCGAAUUCUGCUGU [G4U],0.806
11,GGGCACCACAGCAGAAGCGUUCACGUCGCGGCCCCUGUCAGAUUCUGGUGAAUCUGCGAAUUCUGCUGU [G4C G5A],0.0843
12,GGGCGCCACAGCAGAAGCGUUCACGUCGCGGCCCCUGUCAGAUUCUGGUGAAUCUGCGAAUUCGGCUGU [G4C U64G],0.355
13,GGGCGCCACAGCAGAAGCGUUCACGUCGCGGCCCCUGUCAGAUUCUGGUGAAGCUGCGAAUUCUGCUGU [G4C U53G],0.142
14,GGGUGCCACAGCAGAAGCGUUCACGUCGCGGCCCCUGUCAGCUUCUGGUGAAUCUGCGAAUUCUGCUGU [G4U A42C],0.179
15,GGGCGCCACAGCAGAAGCGUUCACGUCGCGGCCCUUGUCAGAUUCUGGUGAAUCUGCGAAUUCUGCUGU [G4C C35U],0.0739
16,GGGCGCCACAGCAGAAGCGUUCACGUCGCGGCCCCUGUCAGAUUCUGGUGAAUCUGCGAAAUCUGCUGU [G4C U61A],0.147
17,GGGCGCCACAGCAGAAGCGUUCACGUCGCGGCCCCUGUCAGAUUCUGGAGAAUCUGCGAAUUCUGCUGU [G4C U49A],0.657
18,GGGCGCCACAGCAGAAGCGUUCACGUCGCGGCCCCUGUCAGAUUCUGGGGAAUCUGCGAAUUCUGCUGU [G4C U49G],0.341
19,GGGCGCCACAGCAGAAGCGUUCACGUCGCGGCCCCUGUCAGAUUCUGGCGAAUCUGCGAAUUCUGCUGU [G4C U49C],0.548
20,GGGCGCCACAGCAGAAGCGUUCACGUCGCGGCCCCUGUCAGAUUCUGGUGAAUCUGCGAAUUCUGCUCU [G4C G68C],0.941
21,GGGCGCCACAGCAGAAGCGUUCACGUCGCGGCCCCUGUCAGAUUCUGGUGAAUCUGCGAAUUCUGCUAU [G4C G68A],0.976
22,GGGCGCCACAGCAGAAGCGUUCACGUCGCGGCCCCUGUCAGAUUCUGGUGAAUCUGCGAAUACUGCUGU [G4C U62A],0.157
23,GGGUGCCACAGCAGAGGCGUUCACGUCGCGGCCCCUGUCAGAUUCUGGUGAAUCUGCGAAUUCUGCUGU [G4U A16G],0.444
24,GGGUGCCACAGCAGACGCGUUCACGUCGCGGCCCCUGUCAGAUUCUGGUGAAUCUGCGAAUUCUGCUGU [G4U A16C],0.0815
25,GGGCGCCACAGCAGAAGCGUUCAUGUCGCGGCCCCUGUCAGAUUCUGGUGAAUCUGCGAAUUCUGCUGU [G4C C24U],0.124
26,GGGCGCCACAGCAGAAGCGUUCACGUCGCGGCCCCUGCCAGAUUCUGGUGAAUCUGCGAAUUCUGCUGU [G4C U38C],0.302

row,Variant,self-cleavage
1,GGGUGCCACAGCGGAAGCGUUCACGUCGCGGCCCCUGUCAGAUUCUGGUGAAUCUGCGAAUUCUGCUGU [G4U A13G],0.649
2,GGGCGCCACAGCAGAAGCGUUCACGUCGCGGCCCCUGUCAGAUUCUGAUGAAUCUGCGAAUUCUGCUGU [G4C G48A],0.731
3,GGGCGCCACAGCAGAAGCGUUCACGUCGCGGCCCCUGUCAGACUCUGGUGAAUCUGCGAAUUCUGCUGU [G4C U43C],0.406
4,GGGCGCCACAGCAGAAGCGUUCACGUCGCGGCCCCUGUCAGAGUCUGGUGAAUCUGCGAAUUCUGCUGU [G4C U43G],0.26
5,GGGCGCCACAGCAGAAGCGUUCACGUCGCGGGCCCUGUCAGAUUCUGGUGAAUCUGCGAAUUCUGCUGU [G4C C32G],0.0983
6,GGGCGCCACAGCAGAAGCGUUCACGUCGCGGACCCUGUCAGAUUCUGGUGAAUCUGCGAAUUCUGCUGU [G4C C32A],0.188
7,GGGCGCCACAGCAGAAACGUUCACGUCGCGGCCCCUGUCAGAUUCUGGUGAAUCUGCGAAUUCUGCUGU [G4C G17A],0.0822
8,GGGCGCCACAGCAGAAUCGUUCACGUCGCGGCCCCUGUCAGAUUCUGGUGAAUCUGCGAAUUCUGCUGU [G4C G17U],0.0737
9,GGGCGCCACAGCAGAAGCGUUCACGUCGCGGCCCCUGUCAGAUUCUGGUGAAUCUUCGAAUUCUGCUGU [G4C G56U],0.339
10,GGGUGCCACAGCAGAAGCGUUCCCGUCGCGGCCCCUGUCAGAUUCUGGUGAAUCUGCGAAUUCUGCUGU [G4U A23C],0.573
11,GGGUGCCACAGCAGAAGCGUUCUCGUCGCGGCCCCUGUCAGAUUCUGGUGAAUCUGCGAAUUCUGCUGU [G4U A23U],0.86
12,GGGCGCCACAGCAGAAGCGUUCACGUCGCGGCCCCUGUCAGAUUCUGGUGAAUCUGCGAGUUCUGCUGU [G4C A60G],0.235
13,GGGUGCCCCAGCAGAAGCGUUCACGUCGCGGCCCCUGUCAGAUUCUGGUGAAUCUGCGAAUUCUGCUGU [G4U A8C],0.691
14,GGGUGCCGCAGCAGAAGCGUUCACGUCGCGGCCCCUGUCAGAUUCUGGUGAAUCUGCGAAUUCUGCUGU [G4U A8G],0.512
15,GGGCGCCACAGCAGAAGCGUUCACGUCGCGGCCCCUGUCAGAUUCGGGUGAAUCUGCGAAUUCUGCUGU [G4C U46G],0.601
16,GGGCGCCACAGCAGAAGCGUUCACGUCGCGGCCCCUGUCAGAUUCAGGUGAAUCUGCGAAUUCUGCUGU [G4C U46A],0.663
17,GGGCGCCACAGCAGAAGCGUUCACGUCGCGGCCCCUGUCAGAUUCUGGUGAAUCUGCGAAUUCUGCUGC [G4C U69C],0.958
18,GGGCGCCACAGCAGAAGCGUUCACGUCGCGGCCCCUGUCAGAUUCUGGUGAAUCUGCGAAUUGUGCUGU [G4C C63G],0.211
19,GGGCGUCACAGCAGAAGCGUUCACGUCGCGGCCCCUGUCAGAUUCUGGUGAAUCUGCGAAUUCUGCUGU [G4C C6U],0.132
20,GGGUGCCACAGCAGAAGCGUUCACGUCGCGGCCCCUGUCCGAUUCUGGUGAAUCUGCGAAUUCUGCUGU [G4U A40C],0.199
21,GGGCGCCACAGCAGAAGCGUUCACGCCGCGGCCCCUGUCAGAUUCUGGUGAAUCUGCGAAUUCUGCUGU [G4C U26C],0.472
22,GGGUGCCACAGCAGAAGCGUUCACGUCGCGGCCCCUGUCAGAUUCUGGUGAAUCUGCGAGUUCUGCUGU [G4U A60G],0.302
23,GGGCGCCACAGCAGAAGCGUUCACGUCGCCGCCCCUGUCAGAUUCUGGUGAAUCUGCGAAUUCUGCUGU [G4C G30C],0.0792
24,GGGCGCCACAGCAGAAGCGUUCACGUCGCGGCCCCUGUCAGAUUCUGGUGAAUCUGGGAAUUCUGCUGU [G4C C57G],0.15
25,GGGCGCCACAGCAGAAGCGUUCACGUCGCGGCCCCUGUCAGAUUCUGGUGAAUCUGUGAAUUCUGCUGU [G4C C57U],0.234
26,GGGCGCCACAGCAGAAGCGUUCACGUCGCGGCACCUGUCAGAUUCUGGUGAAUCUGCGAAUUCUGCUGU [G4C C33A],0.989

row,Variant,self-cleavage
1,GGGCGCCACAGCAGAAGCGUUCACGUCGCGGCGCCUGUCAGAUUCUGGUGAAUCUGCGAAUUCUGCUGU [G4C C33G],0.98
2,GGGCGCCACAGCAGAAGCGUUCACGUCGCGGCUCCUGUCAGAUUCUGGUGAAUCUGCGAAUUCUGCUGU [G4C C33U],0.804
3,GGGCGCCACAGCAGAAGCGUUCACGUCGCGGCCCCUGUCAGAUACUGGUGAAUCUGCGAAUUCUGCUGU [G4C U44A],0.373
4,GGGCGCCACAGCAGAAGCGUUCACGUCGCGGCCCCUGUCAGAUCCUGGUGAAUCUGCGAAUUCUGCUGU [G4C U44C],0.47
5,GGGUGCCACAGCAGGAGCGUUCACGUCGCGGCCCCUGUCAGAUUCUGGUGAAUCUGCGAAUUCUGCUGU [G4U A15G],0.678
6,GGGUGCCACAGCAGCAGCGUUCACGUCGCGGCCCCUGUCAGAUUCUGGUGAAUCUGCGAAUUCUGCUGU [G4U A15C],0.138
7,GGGUGCCACAGCAGAAGCGUUCACGUGGCGGCCCCUGUCAGAUUCUGGUGAAUCUGCGAAUUCUGCUGU [G4U C27G],0.0677
8,GGGCGCCACAGCAGAAGCGUUCACGUCGUGGCCCCUGUCAGAUUCUGGUGAAUCUGCGAAUUCUGCUGU [G4C C29U],0.131
9,GGGCGCCACAGCAGAAGCGUUCACGUCGCGGCCCCUGUCAGAUUCUGGUUAAUCUGCGAAUUCUGCUGU [G4C G50U],0.637
10,GGGCGCCACAGCAGAAGCGUUCACGUCGCGGCCCCUGUCAGAUUCUGGUGAAUCGGCGAAUUCUGCUGU [G4C U55G],0.231
11,GGGCGCCACAGCAGAAGCGUUCACGUCGCGGCCCCUGUCAGAUUCUCGUGAAUCUGCGAAUUCUGCUGU [G4C G47C],0.718
12,GGGCGCCACAGCAGAAGCGUUCACGUCGCGGCCCCUGUGAGAUUCUGGUGAAUCUGCGAAUUCUGCUGU [G4C C39G],0.298
13,GGGUGUCACAGCAGAAGCGUUCACGUCGCGGCCCCUGUCAGAUUCUGGUGAAUCUGCGAAUUCUGCUGU [G4U C6U],0.31
14,GGGCGCCACAGCAGAAGCGUUGACGUCGCGGCCCCUGUCAGAUUCUGGUGAAUCUGCGAAUUCUGCUGU [G4C C22G],0.082
15,GGGCGCCACAGCAGAAGCGUUUACGUCGCGGCCCCUGUCAGAUUCUGGUGAAUCUGCGAAUUCUGCUGU [G4C C22U],0.074
16,GGGUGCCACAGCAGAAGCGUUCACGUCGGGGCCCCUGUCAGAUUCUGGUGAAUCUGCGAAUUCUGCUGU [G4U C29G],0.1
17,GGGCGCCACAGCAGAAGCGUUCACGUCGCGGCCCCUGUCAUAUUCUGGUGAAUCUGCGAAUUCUGCUGU [G4C G41U],0.159
18,GGGCGCCACAGCAGAAGCUUUCACGUCGCGGCCCCUGUCAGAUUCUGGUGAAUCUGCGAAUUCUGCUGU [G4C G19U],0.103
19,GGGCGCCACAGCAGAAGCCUUCACGUCGCGGCCCCUGUCAGAUUCUGGUGAAUCUGCGAAUUCUGCUGU [G4C G19C],0.104
20,GGGUGCCACAGCAGAAGCGUUGACGUCGCGGCCCCUGUCAGAUUCUGGUGAAUCUGCGAAUUCUGCUGU [G4U C22G],0.0672
21,GGGCGCCACAGCAGAAGCGUUCACGUAGCGGCCCCUGUCAGAUUCUGGUGAAUCUGCGAAUUCUGCUGU [G4C C27A],0.0979
22,GGGCGCCACAGCAGAAGCGUUCACGUGGCGGCCCCUGUCAGAUUCUGGUGAAUCUGCGAAUUCUGCUGU [G4C C27G],0.108
23,GGGUGCCACAGCAGAAGCGUUCACGUCGCGGCCCCUGUCAGAUUCUGGUGAAUCUGCGGAUUCUGCUGU [G4U A59G],0.442
24,GGGUGCCAUAGCAGAAGCGUUCACGUCGCGGCCCCUGUCAGAUUCUGGUGAAUCUGCGAAUUCUGCUGU [G4U C9U],0.954
25,GGGUGCCACCGCAGAAGCGUUCACGUCGCGGCCCCUGUCAGAUUCUGGUGAAUCUGCGAAUUCUGCUGU [G4U A10C],0.905
26,GGGUGCCACGGCAGAAGCGUUCACGUCGCGGCCCCUGUCAGAUUCUGGUGAAUCUGCGAAUUCUGCUGU [G4U A10G],0.784
